According to publication PMC5122161, “Novel prokaryotic expression of thioredoxin-fused insulinoma associated protein tyrosine phosphatase 2 (IA-2), its characterization and immunodiagnostic application” (BMC Biotechnology, 2016):

Molecular target: the molecule itself
Experiment: SEC; Superdex 75 HR 10/30, PBS as mobile phase, room temperature, 1.0 mL/min, 50 ug/500 uL purified TrxIA-2ic injected; calibration with globular standards; eluted fractions identified by western blot with rabbit serum to IA-2

B1: intracellular domain of IA-2 fused to thioredoxin (TrxIA-2ic) (domain or fragment, human, UniProt Q16849 604-979, looked up)
chain: ARQQDKERLAALGPEGAHGDTTFEYQDLCRQHMATKSLFNRAEGPPEPSRVSSVSSQFSDAAQASPSSHSSTPSWCEEPAQANMDISTGHMILAYMEDHLRNRDRLAKEWQALCAYQAEPNTCATAQGEGNIKKNRHPDFLPYDHARIKLKVESSPSRSDYINASPIIEHDPRMPAYIATQGPLSHTIADFWQMVWESGCTVIVMLTPLVEDGVKQCDRYWPDEGASLYHVYEVNLVSEHIWCEDFLVRSFYLKNVQTQETRTLTQFHFLSWPAEGTPASTRPLLDFRRKVNKCYRGRSCPIIVHCSDGAGRTGTYILIDMVLNRMAKGVKEIDIAATLEHVRDQRPGLVRSKDQFEFALTAVAEEVNAILKALPQ
notes: insulinoma associated protein tyrosine phosphatase 2 (IA-2), human, intracellular domain IA-2ic, residues 604 to 979 of the 979-residue protein; codon-optimised synthetic gene adapted from GenBank L18983.1; Thioredoxin was not removed; also called thioredoxin-fused insulinoma associated protein tyrosine phosphatase 2; not shown: thioredoxin (E. coli), N-terminal, kept
In the case of B1, the “stoichiometry N” value is reported as 2.
